Laboratory results taken from paper doi:10.1101/2022.11.18.516900v2.

Assays:
purified protein [1] = substrate: NC(=O)C1=CN([C@@H]2O[C@H](COP(=O)(O)OP(=O)(O)OC[C@H]3O[C@@H](n4cnc5c(N)ncnc54)[C@H](O)[C@@H]3O)[C@@H](O)[C@H]2O)C=CC1; assay: purified protein; conditions: 300 μM methylene-H4F, 100 mM Mops/NaOH pH 7.0, 40 °C, under N2
purified protein [2] = substrate: Nc1nc2c(c(=O)[nH]1)N1CN(c3ccc(C(=O)N[C@@H](CCC(=O)O)C(=O)O)cc3)C[C@H]1CN2; assay: purified protein; conditions: 100 μM NADH, 100 mM Mops/NaOH pH 7.0, 40 °C, under N2

| Protein | Km (purified protein [1]) | kcat (purified protein [1]) | Km (purified protein [2]) | kcat (purified protein [2]) |
| --- | --- | --- | --- | --- |
| hMfr (Mycolicibacterium hassiacum DSM 44199) (protein) MTLNTIALELVPPNSDGPDGGREQAVEDARKVLRCAAETGLAGRIGHVMIPGMIEEDPDRPIPMKPKMDVLDFWTIIRPELPGIRGLCTQVTAFLDEPALRRRLGDLSAAGFDGIAFVGVPRTMNDGEGHGVAPTDALSMFADLVPNRGAILIPTRDGEQGRFEFKCERGATYGMTQLLYSDAIVGFLREFARRTDHRPEILLSFGFVPKLEAKVGLINWLIQDPGNPAVAAEQEFVRRLAGLEPADKRKLMVDLYKRVIDGVADLGFPLSVHLEATYGVSVPAFETFAEMLAYWSPGQG | 16 ± 3 µM | 9 ± 0.383 s⁻¹ | 160 ± 62 µM | 9.83 ± 1.42 s⁻¹ |
| hMfr (Mycolicibacterium hassiacum DSM 44199; E9Q) (protein) MTLNTIALQLVPPNSDGPDGGREQAVEDARKVLRCAAETGLAGRIGHVMIPGMIEEDPDRPIPMKPKMDVLDFWTIIRPELPGIRGLCTQVTAFLDEPALRRRLGDLSAAGFDGIAFVGVPRTMNDGEGHGVAPTDALSMFADLVPNRGAILIPTRDGEQGRFEFKCERGATYGMTQLLYSDAIVGFLREFARRTDHRPEILLSFGFVPKLEAKVGLINWLIQDPGNPAVAAEQEFVRRLAGLEPADKRKLMVDLYKRVIDGVADLGFPLSVHLEATYGVSVPAFETFAEMLAYWSPGQG | 44 ± 13 µM | 0.0183 ± 0.0017 s⁻¹ | 250 ± 59 µM | 0.0217 ± 0.0017 s⁻¹ |
